We go through 1 protein from FireProtDB (doi:10.1021/bi991757+).

The conditions of this series: Enterobacteria phage 434, pH 6, Urea, CD, KH2PO4 25 mM, KCl 100 mM, reversible: yes, whole UniProt chain shown.

B1: Regulatory protein cro wild type, P03036 (protein)
chain: MQTLSERLKKRRIALKMTQTELATKAGVKQQSIQLIEAGVTKRPRFLFEIAMALNCDPVWLQYGTKRGKAA
In the case of B1, the denaturant m value came to 0.99 kcal/mol/M (5 °C), 0.91 kcal/mol/M (15 °C), 1.01 kcal/mol/M (20 °C) and 1 kcal/mol/M (25 °C). Moreover, the “denaturant midpoint (higher = more stable)” value is, setting by setting: (5 °C) 3.32 M; (15 °C) 3.56 M; (20 °C) 3.42 M; (25 °C) 3.07 M. In addition, the unfolding free energy (5 °C) is 13.7 kJ/mol, the unfolding free energy (15 °C) is 13.5 kJ/mol, the unfolding free energy (20 °C) was 14.4 kJ/mol and the unfolding free energy (25 °C) came to 12.8 kJ/mol.
